From the supplement of paper PMC11865577

Legend:
Experiment in all cases: pull-down binding Z-score (relative to library population); higher = stronger binding
[1] = system: G-clamp-N3 (biotin conjugate); settings: RNA library: Library-1 (pre-miRNA loops + repeats)
Summary of the method: (§1)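 To score binding, a beads-only signal was subtracted, barcoded replicate probes were averaged with the highest and lowest dropped, and the value was converted to a Z-score using the library mean and standard deviation. The input was 1 μg of Cy5- or Cy3-end-labelled RNA library, heat-folded in phosphate/NaCl/KCl buffer and mixed for 60 min at 25 °C with streptavidin beads carrying 100 pmol of biotin-conjugated small molecule. Bound RNA was eluted in hot SDS and hybridised to a DNA barcode microarray at 55.5 °C for 20 h.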

[2] = system: TO-3-N3 (biotin conjugate); settings: RNA library: Library-2
Summary of the method: as §1

[3] = system: TO-3-N3-2 (biotin conjugate); settings: RNA library: Library-2
Summary of the method: as §1

TO-N3 (biotin conjugate) = settings: RNA library: Library-2
Summary of the method: as §1

[4] = system: TO-N3-2 (biotin conjugate); settings: RNA library: Library-2
Summary of the method: as §1

| Sequence | pull-down binding Z-score [1] | pull-down binding Z-score [2] | pull-down binding Z-score [3] | pull-down binding Z-score (TO-N3 (biotin conjugate)) | pull-down binding Z-score [4] |
| --- | --- | --- | --- | --- | --- |
| AAGCUGACAGACAGCUG [hsa-mir-5691] | 1.16 | -0.057 | -0.398 | 0.144 | 0.218 |
| UGGGUUGGGUUGGGUUGGGUUGGGUUGGGU [G4_(UGGGU)6] | 1.62 |  |  |  |  |
| CACGUGCUGCUUGUAUAGACAUGAG [hsa-mir-3659] | 0.468 | 0.88 |  | 1.11 | 0.528 |
| GACAUUGCCAGAGGAUGGGCAGCAGAC [hsa-mir-6855] | 2 |  | 0.334 | 0.788 | 1.17 |
| UUCAGUUUCCUUACUGGUAA [hsa-mir-302e] | -0.769 | -0.394 | -0.353 |  | -0.299 |
| GUACUGGGUCUCUCUGGUUAGACCAGAUCUGAGCCUGGGAGCUCUCUGGCUAACUAGGGAACCCACUGC [HIV_2014_Siegfried_nucs_8982_9173_4] | 0.055 |  |  |  |  |
| UCAUUUUCCUUAAAAAAUGA [hsa-mir-3128] | -1.07 | -0.529 | -0.469 | -1.09 |  |
| UGUUCACGUGGAGAGGAGUUAAACA [hsa-mir-499b] | 0.339 | 0.0485 | 0.375 | 0.423 |  |
| GUGGAAGUGCCCACUGGUUCCA [hsa-mir-194-2] | -0.472 | 0.425 | 0.341 |  | 1.32 |
| UGGUUGGUUGGUUGGUUGGUUGGU [G4_(UGGU)6] | 1.53 |  |  |  |  |
| CACGGUGUCUGCGGGAGGAGACCAUG [hsa-mir-4757] | -0.814 | 0.515 |  | 0.828 | 0.821 |
| CGCCCGACUUCGGGG [hsa-mir-4767] | 0.767 | -0.34 |  | -0.314 | 0.0319 |
| GGACCAGCCCAAAGGCCAGGCCUGACCC [hsa-mir-4780] | -0.253 | 0.125 | 0.11 |  | 1.62 |
| UUUAUGUGAACUAAAAUAUAAA [hsa-mir-513c] | -1.49 | -0.547 | -0.21 |  | -1 |
| UUUGAAGUGUUCUAAAUGGUUCAAA [hsa-mir-424] | 1.09 | -0.532 |  | -0.738 | -1.05 |
| UGGUUGGUUGGUUGGUUGGUUGGUUGGUUGGU [G4_(UGGU)8] | 0.443 |  |  |  |  |
| UGGGUUGGGUUGGGUUGGGUUGGGUUGGGUUGGGUUGGGU [G4_(UGGGU)8] | 0.596 |  |  |  |  |
| UGGGGUUGGGGUUGGGGUUGGGGUUGGGGUUGGGGU [G4_(UGGGGU)6] | 1.14 |  |  |  |  |
| GUCUCUCUGGUUAGACCAGAUCUGAGCCUGGGAGCUCUCUGGCUAACUAGGGAAC [HIV_2014_Siegfried_nucs_1_753_1] | -0.404 |  |  |  |  |

| Sequence | pull-down binding Z-score [1] | pull-down binding Z-score [2] | pull-down binding Z-score [3] | pull-down binding Z-score (TO-N3 (biotin conjugate)) | pull-down binding Z-score [4] |
| --- | --- | --- | --- | --- | --- |
| AUAAAGAAAUGUAUCUAAAGUUGCGUAGUGAUGUGCUAUUACCUCUUACGCAAUAUAAUAGAUACUUAGCUCUUUAU |  | -0.341 | -0.197 | -0.507 | -0.61 |
| AAAUUCUUGGAACUGUUUCUUGGAAUUU |  | -0.802 | -0.163 | -1.22 | -1.37 |
| GCUUUGAUAUGGAACGUUAAAGAUUUCAUGUCAUUGU |  | -0.179 | -0.217 | -0.204 | -0.395 |
| GUUCGGAUGCUCGAACUGCACCUCAUGGUCAUGUUAUGGUUGAGCUGGUAGCAGAACUCGAAGGCAUUCAGUAC [DMSMaPseq_invitro_SARS-CoV-2_Motif_11] |  | -0.665 | -0.307 | 0.002 | 1.96 |
| GUACAUGGGCACACUUUCUUAUGAACAAUUUAAGAAAGGUGUUCAGAUACCUUGUAC [SHAPE_invitro_SARS-CoV-2_Motif_110] |  | -0.767 | -0.44 | -1.06 | -1.11 |
| AAACGAACUAAAUAUUAUAUUAGUUUUUCUGUUU |  | -0.375 | 0.491 | -0.211 | -0.324 |
| CAUGAGCAGUGCUGACUCAACUCAGGCCUAAACUCAUG |  | -0.197 | 0.0138 | 0.27 | 0.83 |
| GAUUAUUACAGAUC [DMSMaPseq_invitro_SARS-CoV-2_Motif_169] |  | -0.377 | -0.191 | -0.695 | -1.16 |
| CAUGUGUUGGUAGCGAUAAUGUUACUGACUUUAAUG |  | -0.663 | -0.614 | -0.995 | -1.01 |
| GGAUGUCAAUCC [IAV_invivo_PB1_2_Motif_2+IAV_invivo_PB1_2_Motif_2] |  | 0.302 | -0.17 | 0.0736 | -0.856 |
| UAGUGUUACCACAGAAAUUCUACCAGUGUCUAUGACCAAGACAUCAGUAGAUUGUACAAUGUACAUUUGUGGUGAUUCAACUG [DMSMaPseq_invitro_SARS-CoV-2_Multi_72_ComplexLevel_1] |  | 0.214 | 0.267 | 0.228 | -0.417 |
| CACCACUUAACCGAAAUUAUGUCUUUACUGGUUAUCGUGUAACUAAAAACAGUAAAGUACAAAUAGGAGAGUACACCUUUGAAAAAGGUGACUAUGGUG |  | -0.803 | -0.419 | -0.623 | -0.309 |
| GUGAAGAAUCAU |  | 0.637 | -0.146 | 0.379 | -0.489 |
| UAUGAGGUUUAGAAGAGCUUUUGGUGAAUACAGUCAUGUAGUUGCCUUUAAUACUUUACUAUUCCUUAUG |  | -0.502 | -0.231 | -0.62 | -0.84 |
| AACCCUCACCUUAUGGGUU |  | -0.558 | -0.745 | -0.946 | -1.48 |
| GUGCGUAUAAAGAUUGUACAAAUGUUAAGUGACACACUUAAAAAUCUCUCUGACAGAGUCGUAUUUGUCUUAUGGGCAC [DMSMaPseq_invitro_SARS-CoV-2_Multi_54_ComplexLevel_1] |  | -1.04 | -0.29 | -0.833 | -0.644 |
| CAUCGUUGAUAGUG [SHAPE_invitro_SARS-CoV-2_Motif_152] |  | 0.718 | 0.263 | 0.76 | 0.588 |
| ACAUUUUAUCUUACUAAUGAUGU [SHAPE_invivo_SARS-CoV-2_Motif_191] |  | -0.182 | -0.249 | -0.428 | -1.3 |
